Results taken from patent US20230071889A1.

Assays:
[1] = target: T1, CD127 (Sinobiological, 10975-H03H-50) (UniProt P16871); assay: Biacore, CD127 immobilised on CM5 chip; bivalent model
T1 sequence (looked up): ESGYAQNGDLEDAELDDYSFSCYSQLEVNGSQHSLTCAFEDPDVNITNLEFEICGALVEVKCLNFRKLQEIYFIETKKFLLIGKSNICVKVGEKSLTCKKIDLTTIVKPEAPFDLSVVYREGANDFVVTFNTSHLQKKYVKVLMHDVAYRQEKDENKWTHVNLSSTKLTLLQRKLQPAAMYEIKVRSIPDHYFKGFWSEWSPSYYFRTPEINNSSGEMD

[2] = target: T2, CD132 receptor (Sinobiological 10555-H08B) (UniProt P31785); assay: Biacore, CD132 injected over the CD127/IL-7 complex on the chip
T2 sequence (looked up): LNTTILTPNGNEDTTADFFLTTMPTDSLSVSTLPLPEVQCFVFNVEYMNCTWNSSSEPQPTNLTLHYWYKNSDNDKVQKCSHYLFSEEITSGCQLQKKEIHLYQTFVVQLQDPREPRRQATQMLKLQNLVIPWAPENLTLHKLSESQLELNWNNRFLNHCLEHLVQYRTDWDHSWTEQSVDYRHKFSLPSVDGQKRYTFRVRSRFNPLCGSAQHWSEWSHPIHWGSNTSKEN

[3] = target: T2, CD132 receptor (Sinobiological 10555-H08B); assay: Biacore, CD132 injected over immobilised CD127 + IgG4 alone; steady-state model; baseline, CD127 dimerizes with CD132 in the absence of IL-7

Row | Substance | Kd [1] [nM] | Kd [2] [nM] | Kd [3] [nM]
1 | IL-7 fused to Fc domain (IL7-Fc, CHI-HF-22007 Adipogen) (Fc fusion) | 6.3 | 505 | 
2 | IgG4 alone (antibody) |  |  | 2500
